Assay results published in the RNAGym collection of RNA variant scans (doi:10.1073/pnas.2313332121).
This sample holds only a part of the variants without activity.

B1: TPR 5TU (parent)
chain: GGAUCUUCUCGAUCUAACAAAAAAGACAAAUCUGCCACAAAGCUUGAGAGCAUCUUCGGAUGCAGAGGCGGCAGCCUUCGGUGGCGCGAUAGCGCCAACGUUCUCAACUAUGACACGCAAAACGCGUGCUCCGUUGAAUGGAGUUUAUCAUG

Variants of: B1
Experiment: polymerase ribozyme fitness, log enrichment relative to wild type (log ratio); higher = more active; in vitro selection for triplet polymerase activity
Outline: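 Only genotypes with ≥10 input reads and ≥1 read per output were kept after Illumina sequencing of input and output libraries. These libraries were PCR-built, transcribed mutants of each subunit of a heterodimeric triplet polymerase ribozyme, each put through one triplicate in vitro selection round with frozen incubation at −7 °C, gel excision of extended constructs, streptavidin-bead capture and RT-PCR. Fitness is a logarithmic ratio of genotype enrichment to wild-type enrichment, from inverse-variance-weighted replicate averages, with the logarithm in base 2.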

Variant	polymerase ribozyme fitness (log ratio)
GGAUCUUCUGGAUCUAACAAAAAAGACAAAUAUGCCACAAAGCUUGAGAGCAUCUUCGGAUGCAGAGGCGGCAGCCUUCGGUGGCUCGAUACCGCCAACGUUCUCAACUAUGACACGCAAAACACGUGCUCCGUUGGAUGGAGUUUAUCAUG [C10G C32A G86U G92C G124A A137G]	≤ -4.2
GGAUCUUCUGUAUCCAACAAAAAAGACAAAUCUGCCACAAAGCUUGAGAGCAUCUUCGGAUGCAGAGGCGGCAGCCUUCGGUGACGCUAUAGCGCCAACGUUCUCAACUAUGACACGCAAAACGCGUGCUCCGUUGAAUGGAGUUUAUCAUG [C10G G11U U15C G84A G88U]	≤ -4.2
GGAUCUUCUGGAUCUAACAAAAAAGACAAAUGUGCCAGAAAGCUUGAGAGCAUCGUCGGAUGCAGAGGCGGCAGCCUUCGGUGGCGAGAUAACGCCAACGUUCUCAACUAUGACACGCAAAACGGAUGCUCCGUUGAAUGGAGUUUAUCAUG [C10G C32G C38G U55G C87A G92A C125G G126A]	-4.1
GGAUCUUCUGGAUCUAACAAAAAAGACAAAUCUGCCACAAAGCUUGUGAGCAUAUUCGGAUGCAGAGGCGGUAGCCUUCGAUGGCGCGAUACCGCCAACGUUCUCAACUAUGACACGCAAAACGCGUGCUCCUUGGAAUGGAGUUUAUCAUG [C10G A47U C54A C72U G81A G92C G133U U135G]	≤ -4.2
GGAUCUUCUGGAUCUAACAAAAAAGACAAAUCUGCUACAAAGCUUGAGAGCAUCUUCGGAUGCAGAGGCCGCAGCCUUAGGUGGCGCGAUAGCGGCAACGUUCUCAACUAUGACUCGCAAAACGCGUGCUCCGUUGAAUGGAGUUUAUCAUG [C10G C36U G70C C79A C95G A115U]	≤ -4.2
GGAUCUUCUGGAUCUAACAAAAAAGACAAAUCUGCCACAAAGCUUGAGAGCAUCUUCGGAUGCAGAGGCGGCAGCCUUCGCUGGCGAGAUAGCGCCAACGUUCUCAACUAUGACACGCAAAACGCGCGCUCCGUUGAAUGGAGAUUAACAUG [C10G G81C C87A U127C U144A U148A]	≤ -4.2
GGAUCUUCUGGAUCUAACAAAAAAGAAAAAUCUGCCACUAAGCUUGAGAGCAUCUUCGGAUGCAGAGGCGGCAGACUUCGGUGGCGCGAUACCGCCUACGUUCUCAACUAUGACACGCAAUACGCGUGCUCCGUUGAAUGGAGUUUAUCAUG [C10G C27A A39U C75A G92C A97U A121U]	≤ -4.2
GGAUCUUCUGGAUCUAACAAAAAAGACAAAUCUGCCACAAAGCUUGAGAGCAUCUUCGGAUGCAGAGGCGGCAGCCUUCGGUGGUGCGAUCGCGCCAACGUUCUAAACUAUGACACGCAAAACGCGUGCUCCGUUGAAUGGAGUUUAUCAUG [C10G C85U A91C C105A]	≤ -4.2
GGAUCUUCUGGAUCUAACAAAAAAGACAAAUCUGCCACAAUGCUUGAGAGCAUCUUCGGAUGCAGAGGCGGCAGCCUUCGGUGGCGCGAUAGCGCCAACGUUCUCAACUAUGACACGCAAAACGCGUGCUCCGUUGAAUGGAGUUUAUCAUG [C10G A41U]	-4.05
GGAUCUUCUGGAUCUAACAAAAAAGACAAAUCUGCCACAACGCUUGAGAGCAUCUUCGGAUGCAGAGGCGGCUGCCUUCGGUGGCGCGAUAGCGCCAACGUUCUCAACUAUGACACGCAAAACGCGUGCUCCGAUGAAUGGAGUUUAUCAUG [C10G A41C A73U U134A]	≤ -4.2
GGAUCUUCUGGAUCUAACAAAAAAGACAAAUCUUCCACAAAGCUUGAGAGCAUCUUCGGAUGCAGAGGCGGCAGCCUUCGGUGGAGCGAUAGCGCCAACGUUCUCAACUAUGACACGCAAAACGCGUGCUCCGUUGAAUGGAGUUUAUCAUG [C10G G34U C85A]	≤ -4.2
GGAUCUUCUGGAUCUAACAAAAAAGAUAAAUCUGCCACAAAGCUUGAGAGCAUCUUCGGAAGCAGAGGCGGCAGCCUUCGGUGGCGCGAUAGCGCCAAAGUUCUCAACUAUGACACGCAAAACGCGUGCUCCGUUGAAUGGAGUUUAUCAUG [C10G C27U U61A C99A]	≤ -4.2
GGAUCUUCUGGAUCUAACAAAAAAGACAAAUCUGCCACAAAGCUUGAGAGCAUCUUCGGAUGCAGAGGCGGCAGCUUUCGGUGGCGCGAUAGCGCCAACGUUCUCAACUAUGACACGCAAAACGCGUGCUCCGUUGAAUGGAGUUUAUCAUG [C10G C76U]	-3.93
GGAUCUUCUGGAUCUAACAAAAAAGACAAAUCUGCUACAAAGCUUGAGAGCAUCAUCGGAUGCAGAGGCGGCAGCCUUCGGUGGCGCGAUAGCGUCAACGUUCUCAACUAUGACACGCAAAACGCGUGCUCCUUUGAAUGGAGUUUAUCAUG [C10G C36U U55A C95U G133U]	≤ -4.2
GGAUCUUCUGGAUCUAACAAAAAAGACAAAUCUGCCACAAAGCUUGAGAGCAUCUUCACAUGCAAAGGCGGCAGCCUUCGGUGGCGCGAUAGCGGAAACGUUCUCAACUAUGACACGCACAACGCGUGCUCCGUUGAAUGGAGUUUAUCAUG [C10G G58A G59C G65A C95G C96A A120C]	≤ -4.2
GGAUCUUCUGGAUCUAACAAAAAAGACAAAUCUGCCACAAAGCUUGAGAGUAUCUUCGGAUGCAGAGGCGGCAGCCUUCGGUGGCGCGAUAACGCCAACGUUCUCAACUAUGACACGCAAAACCCGUGCUCCGUUGAAUGGAGUUUAUCAUG [C10G C51U G92A G124C]	≤ -4.2
GGAUCUUCUGGAUCUAACAAAAAAGACAAAUCUGUCACAAAGCUUGAGAGCAUCUUCGGAUGCAGAGGCGGCAGCCUUCGGUGGCGCGAUAGCGCCAACGUUCUCAACUAUGACACGCAAAACGCGUGCUCCGUUGAAUGGAGUUUAUCAUG [C10G C35U]	-3.4
GGAUCUUCUGGAUCUAAGAAAAAAGACAAAUCUGCCACAAAUCUUGAGCACAUCUUCGGAUGCAGAGGCGGCAACCUUCGGUGGCGCGAUAGCGCCAACGUUCUCAACUAUGACACGCAAAACGCGUGCUCCCUUGAAUGGAAUUUAUCAUG [C10G C18G G42U A49C G50A G74A G133C G143A]	≤ -4.2
GGAUCUUCUGGAUCUAACAAAAAAGACAAAUCUGCCACAAAGCUUGAGAGCAUUUUCGGAUCCAGAGGCGGCAGCCUUCGGUGGCUCGAUAGCGCCAACGUUCUCAACUAUGACACGCAAAACGCGUGCUCCGUUGAAUGGAGUUCAUCAUG [C10G C54U G62C G86U U146C]	≤ -4.2
